Experimental data reported in article doi:10.1101/2020.01.21.914671.
pKd: −log10 of the molar value. Several values for one entry are separate records, joined by “and”; a condition that tells them apart may be missing. Identical values can stand only once.

Legend:
[1] = biological target: human Bak BH3 motif peptide (26-mer) (human); experiment: ITC
[2] = biological target: human Bax BH3 motif peptide (28-mer) (human); experiment: ITC
[3] = biological target: TANV16L (tanapoxvirus 16L) lacking the C-terminal 23 residues, wild type (tanapoxvirus); experiment: AUC

## TANV16L (tanapoxvirus 16L) lacking the C-terminal 23 residues, wild type (domain or fragment)
[1]
  pKd: 7.42
[2]
  pKd: 7.15
[3]
  ratio of monomer:dimer: 3.5 :1
  stoichiometry N: 2 and 4
